Patent US20100285015A1

Tests used:
[1] = biological target: glycophorin A associated protein (GPA) on mouse red blood cells (mouse); assay: 125I-labeled fusion on mouse RBCs, 10% hematocrit, 1 h at 37° C, gamma counting
[2] = biological target: glycophorin A associated protein (GPA) on mouse red blood cells (mouse); assay: 125I-labeled fusion on mouse RBCs, 1% hematocrit, saturation binding (FIG. 4C)
[3] = biological target: glycophorin A associated protein (GPA) on mouse red blood cells (mouse); assay: 125I-labeled fusion at 40 µg/ml on mouse RBCs at ~50% hematocrit in PBS/BSA or heparinated plasma, 37° C, time course
[4] = biological target: glycophorin A associated protein (GPA) on mouse red blood cells (mouse); assay: preloaded mouse RBCs injected in mice; RBC vs plasma radioactivity (in vivo)
[5] = biological target: human red blood cells (human); assay: 125I-labeled fusion on human RBCs, 10% hematocrit, 1 h at 37° C, gamma counting
[6] = biological target: glycophorin A associated protein (GPA) on mouse red blood cells (mouse); assay: 125I-labeled fusion injected i.v. in mice; RBC vs plasma radioactivity in blood (in vivo)

B1: Ter119scFv-mRNK fusion protein (protein)
chain: RSPWPGVPTSQVKLQESGGGLVQPGGSLKLSCVASGFTFRDHWMNWVRQAPGKTMEWIGDIRPDGSDTNYAPSVRNRFTISRDNARSILYLQMSNMRSDYTATYYCVRDSPTRAGLMDAWGQGASVTVLTGGGGSGGGGSGGGGSDIQMIQSPSVLSASVGDRVTLNCKASQNINKYLNWYQQKLGEAPKVLIYNTNNLQTGIPSRFSGSGSGTDFTLTISSLQPEDFATYFCFQHYTWPTFGGGTKLELKRASSSSGSSSSGAAAPKGKSEDCYVGKGVTYRGTHSLTTSQASCLPWNSIVLMGKSYTAWRTNSQALGLGRHNYCRNPDGDARPWCHVMKDRKLTWEYCDMSPCSTCGLRQYKRPQFRIKGGLYTDITSHPWQAPIFVAAAASPGERFLCGGVLISSCWVLSAAHCFLERFPPNHLKVVLGRTYRVVPGEEEQTFEIEKYIVHEEFDDDTYDNDIALLQLRSQSKQCAQESSSVGTACLPDPNLQLPDWTECELSGYGKHEASSPFFSDRLKEAHVRLYPSSRCTSQHLFNKTVTNNMLCAGDTRSGGNQDLHDACQGDSGGPLVCMINKQMTLTGIISWGLGCGQKDVPGVYTKVTNYLDWIHDNMKQ
modifications: 125I radiolabel in the binding assays
[1]
  molecules/mRBC (molecules/mRBC): 20000
[2]
  Bmax (molecules/RBC): 80000
  Kd: 77.9 nM
[3]
  50% saturation time: 30 min
[4]
  percent of fusion in the bloodstream associated with RBCs (one hour): 90 % ID
  percent of fusion in the bloodstream associated with RBCs (three hours): 75 % ID
[5]
  molecules/hRBC (molecules/hRBC): 120
[6]
  percent associated with RBC: 90%
